Experimental data taken from US20220204640A1 (Genentech, published 2022).
Positions count from the first letter of the chain named.

Experiments:
[1] = target: T1, TAT211 polypeptide on the surface of cells (human, UniProt O95436 1-690); test: Scatchard analysis on cells, IgG
T1 construct: Expressed endogenously (OVCAR-3, OVCAR4, Igrov1, P828, P701sc20) or recombinantly (293/TAT211) on the cell surface
T1 sequence: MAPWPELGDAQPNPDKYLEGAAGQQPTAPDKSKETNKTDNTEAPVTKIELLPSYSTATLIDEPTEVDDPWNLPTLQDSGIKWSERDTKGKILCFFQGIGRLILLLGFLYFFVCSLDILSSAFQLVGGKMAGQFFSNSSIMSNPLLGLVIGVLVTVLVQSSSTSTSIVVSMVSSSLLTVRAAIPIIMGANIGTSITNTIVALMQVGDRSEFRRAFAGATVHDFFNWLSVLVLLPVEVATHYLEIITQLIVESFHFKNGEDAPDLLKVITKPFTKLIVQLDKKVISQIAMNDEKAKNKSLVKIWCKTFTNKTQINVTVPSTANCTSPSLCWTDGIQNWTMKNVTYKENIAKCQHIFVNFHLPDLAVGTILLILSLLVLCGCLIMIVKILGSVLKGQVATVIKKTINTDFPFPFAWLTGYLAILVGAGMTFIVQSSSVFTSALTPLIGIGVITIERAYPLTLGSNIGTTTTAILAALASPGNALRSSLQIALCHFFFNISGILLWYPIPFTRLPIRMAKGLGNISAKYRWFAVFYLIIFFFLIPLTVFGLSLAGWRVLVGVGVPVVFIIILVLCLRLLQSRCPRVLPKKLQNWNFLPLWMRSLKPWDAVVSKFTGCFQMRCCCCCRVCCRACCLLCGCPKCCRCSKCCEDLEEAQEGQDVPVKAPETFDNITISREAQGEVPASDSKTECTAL

[2] = target: T2, CHO derived TAT211 extracellular domain (glycosylated, immunoadhesin / Fc fusion) (human, UniProt O95436 234-362, glycosylated (CHO)); test: surface plasmon resonance for the Fab, compared with mu10H1
T2 construct: not shown: Fc part of the immunoadhesin
T2 sequence: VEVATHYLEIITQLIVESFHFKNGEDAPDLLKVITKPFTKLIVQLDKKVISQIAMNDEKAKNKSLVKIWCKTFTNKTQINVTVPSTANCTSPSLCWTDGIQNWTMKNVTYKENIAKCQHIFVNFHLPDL

[3] = target: T2, CHO derived TAT211 extracellular domain …; test: surface plasmon resonance (Biacore), TAT211 extracellular domain immobilized
Experimental: TAT211 extracellular domain (glycosylated) was immobilized (approximately 100-400 RU, in 10 mM Sodium Acetate pH 4.8 on a CM5 sensor chip) and the 10H1 antibody variant served as the analyte (injected at a flow rate of 30 μL/min, using a 2-fold serial dilution of 4 to 1000 nM in PBST). Each sample was analyzed with 4-minute association and 10-minute disassociation. After each injection the chip was regenerated using 10 mM Glycine pH 1.7.

[4] = target: T1, TAT211 polypeptide on the surface of …; test: Scatchard analysis on P828 cells expressing TAT211; P828 cells
[5] = target: T1, TAT211 polypeptide on the surface of …; test: Scatchard analysis on Igrov1 cells expressing TAT211; Igrov1 cells
[6] = target: T1, TAT211 polypeptide on the surface of …; test: Scatchard analysis on OVCAR4 cells expressing TAT211; OVCAR4 cells
[7] = target: T1, TAT211 polypeptide on the surface of …; test: Scatchard analysis on P701sc20 cells expressing TAT211; P701sc20 cells

B1: humanized anti-TAT211 antibody 10H1.11.4B (IgG) (antibody, V domains shown)
VH: EVQLVESGGGLVQPGGSLRLSCAASGFSFSDFAMSWVRQAPGKGLEWVATIGRVAFHTYYPDSMKGRFTISRDNSKNTLYLQMNSLRAEDTAVYYCARHRGFDVGHFDFWGQGTLVTVSS
VL: DIQMTQSPSSLSASVGDRVTITCRSSETLVHSSGNTYLEWYQQKPGKAPKLLIYRVSNRFSGVPSRFSGSGSGTDFTLTISSLQPEDFATYYCFQGSFNPLTFGQGTKVEIKR
[1]
  binding result: binds

B2: 10H1-graft as a Fab (Fab, V domains shown)
VH: B1 VH with F56S, A97V
VL: B1 VL with S33N, F98H
notes: Fab expressed in E. coli from the phage display vector; also called 10H1 anti-TAT211 grafted humanized antibody
[2]
  fold loss of affinity relative to the mu10H1 hybridoma antibody: ~2 fold
[3]
  Kd: 74 nM

B3: murine monoclonal antibody 10H1 (antibody, V domains shown)
VH: EVMLVESGGGLVRPGGSLKVSCAASGFSFSDFAMSWVRRTPDKRLEWVATIGRVASHTYYPDSMKGRFTISRDNAKNTLYLQMNSLRSDDTAIYYCVRHRGFDVGHFDFWGQGTLLTVSA
VL: DILMTQTPLSLPVSLGDQASISCRSSETLVHSNGNTYLEWYLQKLGQPPKLLIYRVSNRFSGVPDRFSGSGSGTDFTLKISRLEAEDLGVYYCFQGSHNPLTFGAGTKVEIKR
notes: Murine hybridoma IgG; also called mu10H1; murine 10H1
[4]
  Kd: 36 nM
[5]
  Kd: 61 nM
[6]
  Kd: 37 nM
[7]
  Kd: 59 nM
